From PMC6486591, “Cryo-EM structures of the pore-forming A subunit from the Yersinia entomophaga ABC toxin” (Nature Communications, 2019)

B1: Chi1 (enzyme)
chain: MEKEEKSNLIYDKDPGYVWDNKNECEGAAEETYQELNYEPSISADKLTWTPTRLAKTVFNTYEDDDDFNVLCYFTDWSQYDPRIINKEIRDTGGRSADILRLNTPDGRPFKRLIYSFGGLIGDKKYSADGNASIAVRLGVATDPDDAIANHKGKTIPVDPDGAVLASINCGFTKWEAGDANERYNQEKAKGLLGGFRLLHEADKELEFSLSIGGWSMSGLFSEIAKDEILRTNFVEGIKDFFQRFPMFSHLDIDWEYPGSIGAGNPNSPDDGANFAILIQQITDAKISNLKGISIASSADPAKIDAANIPALMDAGVTGINLMTYDFFTLGDGKLSHHTNIYRDPSDVYSKYSIDDAVTHLIDEKKVDPKAIFIGYAGYTRNAKNATITTSIPSEEALKGTYTDANQTLGSFEYSVLEWTDIICHYMDFEKGEGRNGYKLVHDKVAKADYLYSEATKVFISLDTPRSVRDKGRYVKDKGLGGLFIWSGDQDNGILTNAAHEGLKRRIKNKVIDMTPFYLDSDEELPTYTEPAEPQCEACNIK
notes: Chi1, endochitinase of Yersinia entomophaga, subunit of YenTcA; earlier crystal structure PDB 3oa5 was fitted as a rigid body; Natively expressed, no fusion tags; Five copies stand in YenTcA; Chi1 is not in the deposited atomic model 6ogd; also called endochitinase Chi1; Chi1 subunit
B2: Chi2 (enzyme)
chain: MVNKYTYTSSKAMSDISDVIGEPLAAWDSQVGGRVFNVIFDGKVYTNTYWVERWQVPGIGSSDGNPHNAWKFVRAATADEINKIGNPTTADVKPTENIPSPILVEDKYTEETYSRPDVNFKEDGSQGNLSYTATRVCAPMYNHYVGDKTKPKLSAYITDWCQYDARLDGGGSKEEERGRGFDLATLMQNPATYDRLIFSFLGICGDIGNKSKKVQEVWDGWNAQAPSLGLPQIGKGHIVPLDPYGDLGTARNVGLPPESADTSIESGTFLPYYQQNRAAGLLGGLRELQKKAHAMGHKLDLAFSIGGWSLSSYFSALAENPDERRVFVASVVDFFVRFPMFSCVDIDWEYPGGGGDEGNISSDKDGENYVLLIKELRSALDSRFGYSNRKEISIACSGVKAKLKKSNIDQLVANGLDNIYLMSYDFFGTIWADYIGHHTNLYSPKDPGEQELFDLSAEAAIDYLHNELGIPMEKIHLGYANYGRSAVGGDLTTRQYTKNGPALGTMENGAPEFFDIVKNYMDAEHSLSMGKNGFVLMTDTNADADFLFSEAKGHFISLDTPRTVKQKGEYAAKNKLGGVFSWSGDQDCGLLANAAREGLGYVADSNQETIDMGPLYNPGKEIYLKSISEIKSK
notes: Chi2, endochitinase of Yersinia entomophaga, subunit of YenTcA; N-terminal domain residues 1-91 (unmodelled), chitinase domain residues 92-632 (earlier crystal structure PDB 4dws); Natively expressed, no fusion tags; Five copies stand in the YenTcA complex; also called endochitinase Chi2; Chi2 subunit

Tests used:
YenA2 = biological target: T1, YenA2 (Yersinia entomophaga, UniProt B6A878 1-1364); assay: cryo-EM structure; YenTcA soluble pre-pore form, single-particle cryo-EM, 4.4 Å average resolution, C5 symmetry; 0.1 mg/mL in 25 mM Tris, 150 mM NaCl, pH 7.5, with 10 mM NDSB-195; settings: both partners purified
T1 construct: YenA2, TcA-like protein of Yersinia entomophaga (156 kDa), subunit of YenTcA; UniProt entry name B6A878_9GAMM is printed; holds the shell domain (1-165; 559-812), neuraminidase-like domain (166-332; Natively expressed, no fusion tags; Five copies stand in the YenTcA complex and form the pentameric pore; also called TcA-like protein YenA2

YenA1 = biological target: T2, YenA1 (Yersinia entomophaga, UniProt B6A877 1-1164); assay: as above; settings: both partners purified
T2 construct: YenA1, TcA-like protein of Yersinia entomophaga (130 kDa), subunit of YenTcA; residues 45-304 and 584-1164 are resolved in the alpha-helical shell, residues 305-583 are an unmodelled domain insertion; Natively expressed, no fusion tags; Five copies stand in the YenTcA complex; also called TcA-like protein YenA1
T2 sequence (B6A877 whole entry, the tested form may be a part): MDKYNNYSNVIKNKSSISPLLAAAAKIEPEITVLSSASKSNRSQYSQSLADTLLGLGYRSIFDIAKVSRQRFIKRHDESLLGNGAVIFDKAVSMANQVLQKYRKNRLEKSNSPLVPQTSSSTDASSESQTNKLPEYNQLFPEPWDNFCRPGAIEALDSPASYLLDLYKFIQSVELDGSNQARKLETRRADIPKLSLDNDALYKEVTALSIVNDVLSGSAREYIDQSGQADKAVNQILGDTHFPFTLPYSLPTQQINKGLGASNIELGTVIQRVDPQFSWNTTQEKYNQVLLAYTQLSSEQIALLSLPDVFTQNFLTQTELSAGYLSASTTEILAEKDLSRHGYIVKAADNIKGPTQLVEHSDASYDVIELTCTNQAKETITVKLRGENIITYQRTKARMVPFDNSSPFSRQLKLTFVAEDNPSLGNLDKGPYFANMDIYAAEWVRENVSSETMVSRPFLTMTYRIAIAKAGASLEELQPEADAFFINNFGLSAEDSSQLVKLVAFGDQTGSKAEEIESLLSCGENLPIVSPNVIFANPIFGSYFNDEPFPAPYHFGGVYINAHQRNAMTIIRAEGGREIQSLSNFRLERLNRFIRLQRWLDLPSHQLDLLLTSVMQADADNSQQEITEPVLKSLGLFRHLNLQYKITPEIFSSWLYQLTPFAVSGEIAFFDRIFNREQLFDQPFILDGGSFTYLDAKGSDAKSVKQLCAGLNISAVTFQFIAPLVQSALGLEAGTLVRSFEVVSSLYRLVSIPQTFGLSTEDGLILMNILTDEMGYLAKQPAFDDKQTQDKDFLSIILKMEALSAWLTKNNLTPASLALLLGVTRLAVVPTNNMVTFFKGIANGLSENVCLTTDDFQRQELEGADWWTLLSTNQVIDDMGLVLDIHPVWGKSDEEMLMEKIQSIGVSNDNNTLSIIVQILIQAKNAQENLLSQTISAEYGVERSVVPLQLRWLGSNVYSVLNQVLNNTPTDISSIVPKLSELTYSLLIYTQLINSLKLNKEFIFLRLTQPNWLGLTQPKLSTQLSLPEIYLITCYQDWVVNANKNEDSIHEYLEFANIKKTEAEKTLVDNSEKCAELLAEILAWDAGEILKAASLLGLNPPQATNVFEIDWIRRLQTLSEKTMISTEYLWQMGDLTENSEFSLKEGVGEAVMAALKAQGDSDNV

T1 sequence (B6A878 whole entry, the tested form may be a part): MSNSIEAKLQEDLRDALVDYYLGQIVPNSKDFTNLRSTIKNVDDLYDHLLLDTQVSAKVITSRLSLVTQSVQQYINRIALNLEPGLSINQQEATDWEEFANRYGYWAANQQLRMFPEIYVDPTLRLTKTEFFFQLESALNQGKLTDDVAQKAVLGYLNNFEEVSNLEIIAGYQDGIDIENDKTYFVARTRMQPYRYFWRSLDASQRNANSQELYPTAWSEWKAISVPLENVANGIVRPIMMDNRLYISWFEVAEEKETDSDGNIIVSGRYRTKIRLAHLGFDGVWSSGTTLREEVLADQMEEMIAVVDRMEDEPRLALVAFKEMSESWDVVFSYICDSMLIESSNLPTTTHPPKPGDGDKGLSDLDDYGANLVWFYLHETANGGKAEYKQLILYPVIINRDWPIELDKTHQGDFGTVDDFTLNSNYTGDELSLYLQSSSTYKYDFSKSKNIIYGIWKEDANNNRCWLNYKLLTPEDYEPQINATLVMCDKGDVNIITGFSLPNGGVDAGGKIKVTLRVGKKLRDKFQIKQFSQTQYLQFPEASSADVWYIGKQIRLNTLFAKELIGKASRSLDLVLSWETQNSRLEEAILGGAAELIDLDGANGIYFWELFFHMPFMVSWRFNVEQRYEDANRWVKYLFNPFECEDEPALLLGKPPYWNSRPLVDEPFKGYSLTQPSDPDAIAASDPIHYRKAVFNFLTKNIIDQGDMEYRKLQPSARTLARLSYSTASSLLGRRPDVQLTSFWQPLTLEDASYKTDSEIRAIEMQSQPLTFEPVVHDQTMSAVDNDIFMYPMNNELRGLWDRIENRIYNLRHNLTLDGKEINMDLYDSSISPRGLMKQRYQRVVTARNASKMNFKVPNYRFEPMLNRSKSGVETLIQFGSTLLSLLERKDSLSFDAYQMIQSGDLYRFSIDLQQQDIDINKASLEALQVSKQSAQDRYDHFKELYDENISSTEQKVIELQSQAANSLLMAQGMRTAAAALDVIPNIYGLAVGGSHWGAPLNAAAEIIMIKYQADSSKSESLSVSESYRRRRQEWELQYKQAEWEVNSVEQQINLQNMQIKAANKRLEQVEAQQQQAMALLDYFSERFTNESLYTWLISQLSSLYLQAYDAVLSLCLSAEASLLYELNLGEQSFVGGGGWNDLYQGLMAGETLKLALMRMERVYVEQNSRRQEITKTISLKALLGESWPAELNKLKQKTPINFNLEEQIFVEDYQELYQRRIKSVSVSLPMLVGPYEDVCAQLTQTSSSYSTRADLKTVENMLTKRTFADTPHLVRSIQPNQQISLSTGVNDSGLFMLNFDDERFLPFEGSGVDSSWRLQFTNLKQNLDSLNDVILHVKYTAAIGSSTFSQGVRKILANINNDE

Row | Binder | binding result (YenA2) | binding result (YenA1)
1 | B1 | binds | –
2 | B2 | – | binds
